Experimental data taken from patent US20200239541A1 (XYPHOS BIOSCIENCES, published 2020).
Numbering of substitutions follows the chain as printed. Names may count otherwise.

T1: biotinylated human NKG2D (Example 1) (human, UniProt P26718 78-216)
T1 construct: also called recombinant biotinylated NKG2D
T1 sequence (looked up): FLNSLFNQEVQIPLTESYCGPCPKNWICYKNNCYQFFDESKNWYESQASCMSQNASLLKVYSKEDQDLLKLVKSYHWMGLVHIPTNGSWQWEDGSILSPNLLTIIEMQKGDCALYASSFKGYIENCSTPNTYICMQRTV

T2: human NKG2D-Fc (human, UniProt P26718 78-216)
T2 construct: also called natural NKG2D-Fc; not shown: Fc
T2 sequence (looked up): T1 sequence (looked up)

T3: Y152A NKG2D-Fc (Example 5) (human)
T3 construct: also called non-natural Y152A NKG2D; not shown: Fc
T3 chain: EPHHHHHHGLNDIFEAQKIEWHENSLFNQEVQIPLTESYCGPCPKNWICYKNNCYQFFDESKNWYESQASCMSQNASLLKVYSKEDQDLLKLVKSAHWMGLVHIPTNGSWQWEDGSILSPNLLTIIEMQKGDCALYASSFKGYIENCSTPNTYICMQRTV

B1: WED-MICA α1-α2 domain (N69W, K152E, K154D) (ligand)
chain: EPHSLRYNLTVLSWDGSVQSGFLTEVHLDGQPFLRCDRQKCRAKPQGQWAEDVLGNKTWDRETRDLTGWGKDLRMTLAHIKDQKEGLHSLQEIRVCEIHEDNSTRSSQHFYYDGELFLSQNLETKEWTMPQSSRAQTLAMNVRNFLKEDAMETDTHYHAMHADCLQELRRYLKSGVVLRRTVPPMVQVTRSEASGGSGDRVTITCRASQDVSTAVAWYQQKPGKAPKLLIYSASFLYSGVPSRFSGSGSGTDFTLTISSLQPEDFATYYCQQSYTTPPTFGQGTKVEIKGGSSRSSSSGGGGSGGGGEVQLVESGGGLVQPGGSLRLSCAASGFTFTSTGISWVRQAPGKGLEWVGRIYPTNGSTNYADSVKGRFTISADTSKNTAYLQMNSLRAEDTAVYYCARTYGIYDLYVDYTEYVMDYWGQGTLVTVSSGGSSRSSSSGGGGSGGGGDIQMTQSPSSLSASGGSGQITVTCRASGFYPWNITLSWRQDGVSLSHDTQQWGDVLPDGQGTYQTWVATRISQGEEQRFTCYMEHSGQHSTHPVPSGKGSHHHHHH
notes: also called WED-α1-α2; MICwed
B2: α1-α2 variant 15 (His-tagged, with attached heterologous polypeptide) (ligand)
chain: B1 chain with K125N, H161R
B3: WT α1-α2 domain (soluble wild-type MICA, titrated) (ligand, UniProt Q29983 24-204, looked up)
chain: EPHSLRYNLTVLSWDGSVQSGFLTEVHLDGQPFLRCDRQKCRAKPQGQWAEDVLGNKTWDRETRDLTGNGKDLRMTLAHIKDQKEGLHSLQEIRVCEIHEDNSTRSSQHFYYDGELFLSQNLETKEWTMPQSSRAQTLAMNVRNFLKEDAMKTKTHYHAMHADCLQELRRYLKSGVVLRRT
notes: domain: α1-α2; also called WT MICA; WT NKG2DL
B4: MICA25.17 (phage clone) (ligand)
chain: EPHSLRYNLTVLSWDGSVQSGFLTEVHLDGQPFLRCDRQKCRAKPQGQWAEDVLGNKTWDRETRDLTGWGTTLLMTLAHIKDQKEGLHSLQEIRVCEIHEDNSTRSSQHFYYDGELFLSQNLETLEWTMPQSSRAQTLAMNVRNFLKEDAMETDIGYRLMRADCLSELRRYLKSGVVLRRTV
B5: MICA25.18 (phage clone) (ligand)
chain: B4 chain with T72F, L74R, I155R, G156S, Y157G, R158L
B6: ULBP2.S1 (phage clone) (ligand)
chain: AAEPHSLSYDITVIPKFRPGPRWCAVQGQVDEKTFLHYDCGNKTVTPVSPLGKKLNVTTAWKAQNPVLREVVDILTEQLWDIQLENYTPKEPLTLQARMSCEQKAEGHSSGSWQFSFDGQIFLLFDSEKRMWTTVHPGARKMKEKWENDKVVATTLYTWSMGDCIGWLEDFLMGMDSTLEPSAGAP
B7: ULBP2.S2 (phage clone) (ligand)
chain: B6 chain with T155L, L156M, Y157R, T158I
B8: ULBP2.S3 (phage clone) (ligand)
chain: B6 chain with T155K, T158L
B9: ULBP3.S1 (phage clone) (ligand)
chain: AAEPHSLWYNFTIIHLPRHGQQWCEVQSQVDQKNFLSYDCGSDKVLSMGHLEEQLYATDAWGKQLEMLREVGQRLRLELADTELEDFTPSGPLTLQVRMSCESEADGYIRGSWQFSFDGRKFLLFDSNNRKWTVVHAGARRMKEKWEKDSGLTTDLIRRSMGDCKSWLRDFLMHRKKRLEPTAP
B10: ULBP3.S2 (phage clone) (ligand)
chain: B9 chain with D155Y, L156F, I157Y, R158L

Legend:
[1] = target: T1, biotinylated human NKG2D (Example 1); assay: BLI (Octet), Kd = kOFF/kON
human NKG2D-Fc [2] = target: T2, human NKG2D-Fc; assay: competition ELISA vs coated WT sMICA, 2 nM human NKG2D-Fc
Excerpt: (§1) To the NKG2DLs in the above example, we directly attached heterologous molecules such as a polypeptide to each of these 4 modified α1-α2 NKG2DLs using a linker peptide. Four His-tagged proteins (SEQ ID NOs.: 25-28) consisting of modified NKG2DLs with attached heterologous molecules were expressed in insect cells and purified to characterize their NKG2D binding affinities and kinetic binding parameters. Using a competitive binding ELISA, we determined the relative NKG2D binding affinities of the 4 modified α1-α2 variants.

[3] = target: T1, biotinylated human NKG2D (Example 1); assay: BLI (Octet), biotinylated human NKG2D coated, 100 nM analyte
human NKG2D-Fc [4] = target: T2, human NKG2D-Fc; assay: competition ELISA vs coated WT sMICA
Excerpt: as §1

[5] = target: T3, Y152A NKG2D-Fc (Example 5); assay: phage ELISA

Row | Binder | IC50 (human NKG2D-Fc [2]) [nM] | fold selective binding to Y152A NKG2D over natural NKG2D [5] [fold] | also measured
1 | B1 | 4.4 | – | Kd [1]: 5.9 nM; koff [3]: 0.0017 s⁻¹; kon [3]: 290000 M⁻¹ s⁻¹
2 | B2 | 1.7 | – | Kd [1]: 1.5 nM; fold better binding than WT NKG2DL (human NKG2D-Fc [4]): 11 fold; koff [3]: 0.00011 s⁻¹; kon [3]: 70000 M⁻¹ s⁻¹
3 | B3 | 19.4 | – | –
4 | B4 | – | > 10 | –
5 | B5 | – | > 10 | –
6 | B6 | – | > 10 | –
7 | B7 | – | > 10 | –
8 | B8 | – | > 10 | –
9 | B9 | – | > 10 | –
10 | B10 | – | > 10 | –
